# Source: EP1557432B1
# Target: TBP-hCGβ(20-190)
# Assay: sandwich immunoassay for the hCG heterodimer (anti-hCG β capture, anti-TSH α detection), COS-7 cotransfection of α and β fusions
substance,measurement,value
TBP-hCGα(20-190),Concentration (ng/ml) of heterodimer in hCG heterodimer assay,38 ng/mL
